Columns and labels:
Test in all cases: Kinetic evaluation of peptide substrates, varying peptide at fixed ATP (phosphocellulose filter, [γ-33P]ATP)
Format in all cases: biochemical
Conditions in all cases: other: ErbB-2; Km for peptide; ATP concentration >10 × Km (200 μM ATP); pH 7.5; 23.0 °C
[1] = test system: CC[C@H](C)[C@H](NC(=O)[C@H](CCC(=O)O)NC(=O)[C@H](CCC(=O)O)NC(=O)[C@H](Cc1c[nH]cn1)NC(=O)[C@H](C)NC(=O)[C@H](CCCNC(=N)N)NC(=O)CCCCCNC(=O)CCCC[C@@H]1SC[C@@H]2NC(=O)N[C@@H]21)C(=O)N[C@@H](Cc1ccc(O)cc1)C(=O)N[C@@H](Cc1c[nH]cn1)C(=O)N[C@@H](Cc1ccccc1)C(=O)N[C@@H](Cc1ccccc1)C(=O)N[C@@H](Cc1ccccc1)C(=O)N[C@@H](C)C(=O)N[C@@H](CCCCN)C(=O)N[C@@H](CCCCN)C(=O)N[C@@H](CCCCN)C(N)=O
Experimental: (§1) Peptide sequences identified as preferred substrates for ErbB-2 using the methods described in Laboratory Example 3 were synthesized. The kcat and Km values for each peptide were determined as follows, using the kinases ErbB-2, ErbB-4, and EGFR.
(§2) Reactions were performed in 96-well polystyrene round bottom plates in a final volume of 45 μL. Reaction mixtures contained 50 mM MOPS, pH 7.5, 10 mM MnCl2, 1 mM dithiothreitol (DTT), 200 μM ATP, 1.0 μCi [γ-^33P] ATP, and varying concentrations of peptide. The reaction was initiated by adding the purified kinase of interest and halted after 10 minutes at 23° C. (room temperature) by adding 45 μL of 0.5% phosphoric acid in water. A 75 μL aliquot of the halted reaction mixture was then transferred to MAPH phosphocellulose filter plates (Millipore, Bedford, Mass.). The plates were filtered three times with 0.2 mL of 0.5 percent phosphoric acid. Scintillation cocktail (50 μL) was added to each well, and the plate was analyzed by counting in a Packard TOPCOUNT® scintillation counter (Packard Instrument Co., Meriden, Conn.). In these assays, the concentration of ATP was greater than ten-fold higher than the Km for ATP, which permitted the kinetic data to be treated as a pseudo-first-order reaction with varying peptide concentration. All experiments were performed in quadruplicate and the average value for each data point was analyzed. The Km and Vmax values were calculated by fitting the data to the Henri-Michaelis-Menten equation by non-linear regression using SIGMAPLOT® (SPSS Science, Chicago, Ill.). kcat values were calculated using the Vmax value, and are based on the protein concentration of the enzyme preparation and an estimate of purity determined from an evaluation of a Coomassie Blue stained SDS-polyacrylamide gel.

[2] = test system: CC[C@H](C)[C@H](NC(=O)[C@H](CCC(=O)O)NC(=O)[C@H](Cc1c[nH]cn1)NC(=O)[C@H](Cc1c[nH]cn1)NC(=O)[C@H](C)NC(=O)[C@H](CCCNC(=N)N)NC(=O)CCCCCNC(=O)CCCC[C@@H]1SC[C@@H]2NC(=O)N[C@@H]21)C(=O)N[C@@H](Cc1ccc(O)cc1)C(=O)N[C@@H](Cc1c[nH]cn1)C(=O)N[C@@H](Cc1ccccc1)C(=O)N[C@@H](Cc1ccccc1)C(=O)N[C@@H](Cc1ccccc1)C(=O)N[C@@H](C)C(=O)N[C@@H](CCCCN)C(=O)N[C@@H](CCCCN)C(=O)N[C@@H](CCCCN)C(N)=O
Experimental: as §1, §2

[3] = test system: CC[C@H](C)[C@H](NC(=O)[C@H](Cc1ccccc1)NC(=O)[C@H](Cc1c[nH]cn1)NC(=O)[C@H](Cc1ccc(O)cc1)NC(=O)[C@H](CCC(=O)O)NC(=O)[C@H](CCC(=O)O)NC(=O)[C@H](CCC(=O)O)NC(=O)[C@H](Cc1c[nH]cn1)NC(=O)[C@H](C)NC(=O)[C@H](CCCNC(=N)N)NC(=O)CCCCCNC(=O)CCCC[C@@H]1SC[C@@H]2NC(=O)N[C@@H]21)C(=O)N[C@@H](Cc1ccccc1)C(=O)N[C@@H](C)C(=O)N[C@@H](CCCCN)C(=O)N[C@@H](CCCCN)C(=O)N[C@@H](CCCCN)C(N)=O
Experimental: as §1, §2

[4] = test system: C[C@H](NC(=O)[C@H](CCCNC(=N)N)NC(=O)CCCCCNC(=O)CCCC[C@@H]1SC[C@@H]2NC(=O)N[C@@H]21)C(=O)N[C@@H](Cc1c[nH]cn1)C(=O)N[C@@H](CCC(=O)O)C(=O)N[C@@H](CCC(=O)O)C(=O)N[C@@H](CCC(=O)O)C(=O)N[C@@H](Cc1ccc(O)cc1)C(=O)N[C@@H](Cc1c[nH]cn1)C(=O)N[C@@H](Cc1ccccc1)C(=O)N[C@@H](Cc1ccccc1)C(=O)N[C@@H](Cc1ccccc1)C(=O)N[C@@H](C)C(=O)N[C@@H](CCCCN)C(=O)N[C@@H](CCCCN)C(=O)N[C@@H](CCCCN)C(N)=O
Experimental: as §1, §2

[5] = test system: C[C@H](NC(=O)[C@H](CCCNC(=N)N)NC(=O)CCCCCNC(=O)CCCC[C@@H]1SC[C@@H]2NC(=O)N[C@@H]21)C(=O)N[C@@H](Cc1c[nH]cn1)C(=O)N[C@@H](Cc1c[nH]cn1)C(=O)N[C@@H](CCC(=O)O)C(=O)N[C@@H](CCC(=O)O)C(=O)N[C@@H](Cc1ccc(O)cc1)C(=O)N[C@@H](Cc1c[nH]cn1)C(=O)N[C@@H](Cc1ccccc1)C(=O)N[C@@H](Cc1ccccc1)C(=O)N[C@@H](Cc1ccccc1)C(=O)N[C@@H](C)C(=O)N[C@@H](CCCCN)C(=O)N[C@@H](CCCCN)C(=O)N[C@@H](CCCCN)C(N)=O
Experimental: as §1, §2

Substance: ErbB-2 (Homo sapiens)
- Km [1]: 11.4 µM
- kcat [1]: 0.0967 s⁻¹
- kcat/Km [1]: 8500 M⁻¹ s⁻¹
- Km [2]: 66.6 µM
- kcat [2]: 0.173 s⁻¹
- kcat/Km [2]: 2670 M⁻¹ s⁻¹
- Km [3]: 8.6 µM
- kcat [3]: 0.0333 s⁻¹
- kcat/Km [3]: 3830 M⁻¹ s⁻¹
- Km [4]: 6.8 µM
- kcat [4]: 0.0127 s⁻¹
- kcat/Km [4]: 1830 M⁻¹ s⁻¹
- Km [5]: 14.7 µM
- kcat [5]: 0.09 s⁻¹
- kcat/Km [5]: 6170 M⁻¹ s⁻¹

Reference: patent US20030113711A1, “Protein kinase peptide substrate determination using peptide libraries” (priority 2001, published 2003)
